The numbers were not newly measured in publication PMC2883863, which cites them from elsewhere.

The target of the data set is Cys36 (UniProt position 73, FWTPWCPFCNA). The conditions noted are these: not stated (quoted literature value for Mtb DsbE).

The term pKa denotes the pH at which an ionisable group is half protonated. Consider “Disulfide bond forming protein DsbE (Mtb DsbE, Rv2878c, MPT53) (Mycobacterium tuberculosis)”, for which the pKa is 5.35 ± 0.2.
